Biological target: TNF-α (UniProt P01375)
Experiment: cell-based or functional assay

Sequence of UniProt P01375 (P01375 77-233 limits assumed): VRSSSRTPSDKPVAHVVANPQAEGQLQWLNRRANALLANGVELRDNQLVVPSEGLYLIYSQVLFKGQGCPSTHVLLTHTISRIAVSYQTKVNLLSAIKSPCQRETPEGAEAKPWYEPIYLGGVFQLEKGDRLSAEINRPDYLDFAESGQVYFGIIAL

IC50 of inhibition of activation of the SEAP reporter gene in HEK-Blue TNF-α cells (235 pM TNF-α): 51 pM
Substance: TNF-R2 scCLCH1-Fc (Fc fusion)
